# Measurements as given in patent US20090203610A1, “METHODS OF TREATING OBESITY OR DIABETES USING NT-4/5” (RINAT NEUROSCIENCE CORPORATION, priority 2004, published 2009).
# B1: NT-4/5: mature human neurotrophin-4/5 (SEQ ID NO:1), obtained from Genentech or produced in E. coli (protein, listed as Homo sapiens)
# chain: GVSETAPASRRGELAVCDAVSGWVTDRRTAVDLRGREVEVLGEVPAAGGSPLRQYFFETRCKADNAEEGGPGAGGGGCRGVDRRHWVSECKAKQSYVRALTADAQGRVGWRWIRIDTACVCTLLSRTGRA
# Columns and labels:
# [1] = test system: NONcNZO-10 polygenic obese and diabetic mice; assay: Body weight after intravenous NT-4/5 in NONcNZO-10 mice (Example 3); type: in vivo; details: i.v. 1 mg/kg
# Protocol: Experiment was also performed on the same type of mice by intravenous injection of vehicle (PBS) and NT-4/5 (1 mg/kg) on day 1 and on day 5. About 5% to about 10% reduction of body weight was observed between NT-4/5 treated group and vehicle group between day 2 and day 15.
# DIO mice = assay: Body weight after intravenous NT-4/5 in DIO mice, separate study (Example 5); type: in vivo; details: i.v. 5 mg/kg on day 1 and day 4
# Description: Two way ANOVA followed by Bonferroni's post-test were used for statistical analysis.
# human TrkB = molecular target: T1, human TrkB (Homo sapiens, UniProt Q16620); assay: Receptor tyrosine phosphorylation (KIRA) in TrkB expressing cell line; type: cell-based
# T1 construct: expressed in transfected cells
# T1 sequence (Q16620 32-822): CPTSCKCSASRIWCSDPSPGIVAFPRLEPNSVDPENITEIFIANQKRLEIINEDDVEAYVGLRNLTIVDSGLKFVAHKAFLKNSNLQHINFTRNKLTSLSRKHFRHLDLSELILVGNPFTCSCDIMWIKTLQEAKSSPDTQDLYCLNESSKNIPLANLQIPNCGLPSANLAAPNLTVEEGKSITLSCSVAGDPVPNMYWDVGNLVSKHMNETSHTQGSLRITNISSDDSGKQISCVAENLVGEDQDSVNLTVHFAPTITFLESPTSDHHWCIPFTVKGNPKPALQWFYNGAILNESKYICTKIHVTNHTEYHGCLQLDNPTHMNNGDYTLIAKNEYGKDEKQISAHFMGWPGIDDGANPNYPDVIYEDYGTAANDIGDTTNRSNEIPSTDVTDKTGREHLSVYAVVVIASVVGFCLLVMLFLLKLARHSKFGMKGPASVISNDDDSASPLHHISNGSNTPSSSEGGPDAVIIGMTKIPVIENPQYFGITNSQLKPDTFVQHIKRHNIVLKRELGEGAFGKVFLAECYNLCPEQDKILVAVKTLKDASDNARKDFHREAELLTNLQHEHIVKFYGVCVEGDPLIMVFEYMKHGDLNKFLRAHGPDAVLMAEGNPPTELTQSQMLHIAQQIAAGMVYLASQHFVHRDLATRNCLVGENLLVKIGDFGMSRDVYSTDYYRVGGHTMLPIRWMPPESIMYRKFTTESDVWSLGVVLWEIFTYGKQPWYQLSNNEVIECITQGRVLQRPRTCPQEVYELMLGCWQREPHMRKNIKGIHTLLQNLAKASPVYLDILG
# [2] = test system: NONcNZO-10 polygenic obese and diabetic mice; assay: Non-fasting blood glucose and HbA1c in polygenic obese and diabetic mice NONcNZO-10 (Example 3); type: in vivo; details: 2 or 10 mg/kg s.c. daily; dose dependent
# Description: (§1) Test animals: 19 male NONcNZO-10 polygenic obese and diabetic mice from Jackson Laboratory (See Leiter et al., Diabetes 53 (Suppl. 1): S4-S11, 2004) at 9 weeks of age weighing in the range of 28-35 g were used in this study.
# (§2) Administration of NT-4/5: NT-4/5 was obtained from Genentech Inc.
# (§3) The mice were divided into 3 groups of equivalent body weight and baseline glucose distribution (6-7 mice per group). […] Seven days before starting the treatment (day −7), blood samples were collected from the mice as described previously for the determination of baseline levels of blood glucose and triglyceride. After the treatment started, blood samples were collected weekly to determine glucose and triglyceride levels as described in previous examples. Body weight and food intake were monitored 5 days a week through out the entire study.
# [3] = test system: NONcNZO-10 polygenic obese and diabetic mice; assay: Body weight and food intake in NONcNZO-10 mice (Example 3); type: in vivo
# Description: as §1, §2, §3
# db/db mice [4] = assay: Dose response of NT-4/5 on serum biomarkers of db/db mice (Example 2); type: in vivo
# Protocol: Db/db mice maintained as described in Example 1 were divided into five groups (groups 1-5). Group 1 (7 mice) were administered with vehicle (PBS). Group 2 (7 mice), group 3 (8 mice), group 4 (8 mice), group 5 (8 mice) were each administered with NT-4/5 at the doses of 2 mg/kg, 5 mg/kg, 10 mg/kg, and 20 mg/kg, respectively. Both the vehicle and NT-4/5 were administered to each group of the mice subcutaneously once daily for five days. One day before beginning the treatment (T0), blood samples were collected from the mice as described previously for the determination of baseline levels of serum biomarkers (glucose, triglyceride, and cholesterol). Similarly, at day 6 (T6), blood samples were collected for the determination of serum biomarker levels. The blood samples were treated in the same manner as described in Example 1.
# Blood glucose, triglyceride, and cholesterol levels were determined as described in Example 1.
# db/db mice [5] = assay: Co-administration of Mab 1241 with NT4/5 in db/db mice (Example 15); type: in vivo; details: NT4/5 2 mg/kg s.c. daily day 1-5; Mab 1241 5 mg/kg i.p. single on day 1
# Description: Test animals: 32 Leptin receptor mutant db/db mice (BSK.Cg-m+/+Leprdb) obtained from Jackson Laboratory were used for the study. The mice were divided into four groups of 8 animals each (groups 1-4), with homogeneous initial body weight and glycemia values based on a randomization table. The mice were housed one per cage.
# Anti-NT4/5 and NT4/5: Both anti-NT4/5 monoclonal antibody Mab 1241 and human NT4/5 were obtained from Genentech. […] (data not shown).
# Administration of Mab 1241 and NT4/5: On day one, mice in groups 1-4 were treated with vehicle (PBS) subcutanouesly (s.c.), 5 mg/kg Mab 1241 intraperitioneally (i.p.), 5 mg/kg Mab 1241 intraperitioneally (i.p.) plus 2 mg/kg NT4/5 subcutanouesly (s.c.), and 2 mg/kg NT4/5 subcutanouesly (s.c.), respectively. On day 2 through day 5, group 1 was treated with a daily dose of vehicle (PBS) subcutanouesly (s.c.). Groups 3 and 4 were treated with a daily dose of 2 mg/kg NT4/5 subcutanouesly (s.c.).
# Baseline non-fasted blood glucose level was measured by One-Touch Ultra glucose meter from the tail bleed.
# [6] = 2 or 10 mg/kg s.c. daily, dose dependent
# [7] = Day 0 (Baseline), 2 mg/kg group
# [8] = Day 0 (Baseline), 5 mg/kg group
# [9] = Day 0 (Baseline), 10 mg/kg group
# [10] = Day 0 (Baseline), 20 mg/kg group
molecule,measurement,setting,value
B1,time body weight reduction maintained after 2 staggered intravenous doses,[1],up to 10 days
same,reduction of body weight,DIO mice,about 5%
same,time reduced body weight maintained after the second dose,DIO mice,at least 10 days
same,receptor tyrosine phosphorylation of TrkB-expressing cell line,human TrkB,increased receptor tyrosine phosphorylation
same,"long term glycemic control, HbA1c levels",[2],improved long term glycemic control
same,non-fasting blood glucose level,[2],reduced non-fasting blood glucose level
same,body weight,[3]; [6],reduced body weight
same,food intake,[3]; [6],reduced
same,rebound hyperphagia or rebound body weight gain,[3]; 30 days after the treatment was terminated,No rebound hyperphagia or rebound body weight gain/overshoot was observed
same,Cholesterol,db/db mice [4]; [7],86.25 mg/dL
same,Glucose,db/db mice [4]; [7],544.50 mg/dL
same,Triglyceride,db/db mice [4]; [7],206.13 mg/dL
same,Cholesterol,db/db mice [4]; [8],95.88 mg/dL
same,Glucose,db/db mice [4]; [8],563.00 mg/dL
same,Triglyceride,db/db mice [4]; [8],217.13 mg/dL
same,Cholesterol,db/db mice [4]; [9],90.00 mg/dL
same,Glucose,db/db mice [4]; [9],538.00 mg/dL
same,Triglyceride,db/db mice [4]; [9],197.50 mg/dL
same,Cholesterol,db/db mice [4]; [10],98.38 mg/dL
same,Glucose,db/db mice [4]; [10],544.88 mg/dL
same,Triglyceride,db/db mice [4]; [10],253.50 mg/dL
same,Cholesterol,"db/db mice [4]; Day 6, 2 mg/kg s.c. once daily for five days",111.43 mg/dL
same,Cholesterol,"db/db mice [4]; Day 6, 5 mg/kg s.c. once daily for five days",113.25 mg/dL
same,Cholesterol,"db/db mice [4]; Day 6, 10 mg/kg s.c. once daily for five days",108.75 mg/dL
same,Cholesterol,"db/db mice [4]; Day 6, 20 mg/kg s.c. once daily for five days",112.88 mg/dL
same,blood cholesterol levels,"db/db mice [4]; day 6, 2-20 mg/kg",remained at the baseline level
same,body weight,db/db mice [5],"small, but statistically insignificant reduction in body weight"
same,food intake,db/db mice [5],significantly reduced food intake on day 8 and day 10
same,non-fasted glucose level,db/db mice [5],"reduced non-fasted glucose level only on day 9, but not on day 4"
